Key:
HLA-A*02:01 = HLA-A*02:01 (Homo sapiens, UniProt P04439, D140Y/D185E/D98H/E176V/E277Q/G131W/G231S/I119V/I121R/I166T/I218V/L300P/L318F/N151K/N90K/P208A/P217A/Q86G/Q94H/R138H/R169H/T345S); test: MHC binding assay (UV-ligand exchange, beta2m ELISA); conditions: binding to HLA-A*02:01, UV-ligand exchange
Outline: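 Exchange yield, UV-ligand exchange: 100-fold diluted samples on streptavidin plates, 1 h at 37 °C; HRP anti-β2m 1 h at 37 °C; TMB read at 450 nm.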

CD8+ T cells = test: In vitro T-cell priming immunogenicity assay (aAPC with pMHC and anti-CD28, multimer staining); assay type: cell-based, human; conditions: for Wells positive [%]: HLA-A*02 restricted peptides, percentage of positive wells and donors (among evaluable); for in vitro immunogenicity, wells: CD8+ T cells of healthy HLA-A*02 donors, three stimulation cycles, multimer readout
Source text: In order to obtain information regarding the immunogenicity of the TUMAPs of the present invention, the inventors performed investigations using an in vitro T-cell priming assay based on repeated stimulations of CD8+ T cells with artificial antigen presenting cells (aAPCs) loaded with peptide/MHC complexes and anti-CD28 antibody.
In order to perform in vitro stimulations by artificial antigen presenting cells loaded with peptide-MHC complex (pMHC) and anti-CD28 antibody, the inventors first isolated CD8+ T cells from fresh HLA-A*02 leukapheresis products via positive selection using CD8 microbeads (Miltenyi Biotec, Bergisch-Gladbach, Germany) of healthy donors obtained from the University clinics Mannheim, Germany, after informed consent.
PBMCs and isolated CD8+ lymphocytes were incubated in T-cell medium (TCM) until use consisting of RPMI-Glutamax (Invitrogen, Karlsruhe, Germany) supplemented with 10% heat inactivated human AB serum (PAN-Biotech, Aidenbach, Germany), 100 U/ml Penicillin/100 μg/ml Streptomycin (Cambrex, Cologne, Germany), 1 mM sodium pyruvate (CC Pro, Oberdorla, Germany), 20 μg/ml Gentamycin (Cambrex). 2.5 ng/ml IL-7 (PromoCell, Heidelberg, Germany) and 10 U/ml IL-2 (Novartis Pharma, Nurnberg, Germany) were also added to the TCM at this step.
Generation of pMHC/anti-CD28 coated beads, T-cell stimulations and readout was performed in a highly defined in vitro system using four different pMHC molecules per stimulation condition and 8 different pMHC molecules per readout condition.
The purified co-stimulatory mouse IgG2a anti human CD28 Ab 9.3 (Jung et al., 1987) was chemically biotinylated using Sulfo-N-hydroxysuccinimidobiotin as recommended by the manufacturer (Perbio, Bonn, Germany). Beads used were 5.6 μm diameter streptavidin coated polystyrene particles (Bangs Laboratories, Illinois, USA).
800.000 beads/200 μl were coated in 96-well plates in the presence of 4×12.5 ng different biotin-pMHC, washed and 600 ng biotin anti-CD28 were added subsequently in a volume of 200 μl. Stimulations were initiated in 96-well plates by co-incubating 1×10^6 CD8+ T cells with 2×10^5 washed coated beads in 200 μl TCM supplemented with 5 ng/ml IL-12 (PromoCell) for 3 days at 37° C. Half of the medium was then exchanged by fresh TCM supplemented with 80 U/ml IL-2 and incubating was continued for 4 days at 37° C. This stimulation cycle was performed for a total of three times. For the pMHC multimer readout using 8 different pMHC molecules per condition, a two-dimensional combinatorial coding approach was used as previously described (Andersen et al., 2012) with minor modifications encompassing coupling to 5 different fluorochromes. Finally, multimeric analyses were performed by staining the cells with Live/dead near IR dye (Invitrogen, Karlsruhe, Germany), CD8-FITC antibody clone SK1 (BD, Heidelberg, Germany) and fluorescent pMHC multimers. For analysis, a BD LSRII SORP cytometer equipped with appropriate lasers and filters was used. Peptide specific cells were calculated as percentage of total CD8+ cells. Evaluation of multimeric analysis was done using the FlowJo software (Tree Star, Oregon, USA). In vitro priming of specific multimer+CD8+ lymphocytes was detected by comparing to negative control stimulations.

For “68 (QIAAFLFTV; listed as Homo sapiens) [compound 68]”, the “Peptide exchange (MHC class I binding score, peptide exchange yield)” value (“Peptide exchange” below) (HLA-A*02:01) was ““++++” (≥75% = ++++)” and the “Wells positive [%]” value (CD8+ T cells) was ““+++” (50% - 69% = +++)”.
For “328 (ILFPDIIARA; listed as Homo sapiens) [compound 328]”, the “in vitro immunogenicity, wells” value (CD8+ T cells) was “++++ (≥70% = ++++)”.
“22 (ALKKHLTSV; listed as Homo sapiens) [compound 22]” was tested, and the “Peptide exchange” value (HLA-A*02:01) was ““+++” (≥50 = +++)” and the “Wells positive [%]” value (CD8+ T cells) was ““++++” (≥70% = ++++)”.
With “73 (YLGEEYPEV; listed as Homo sapiens) [compound 73]” the “Peptide exchange” value (HLA-A*02:01) was ““+++” (≥50 = +++)” and the “Wells positive [%]” value (CD8+ T cells) was ““+” (<20% = +)”.
For “33 (LLANIVPIAMLV; listed as Homo sapiens) [compound 33]”, the “Peptide exchange” value (HLA-A*02:01) was ““++++” (≥75% = ++++)” and the “Wells positive [%]” value (CD8+ T cells) was ““+” (<20% = +)”.
With “326 (KLTDVGIATL; listed as Homo sapiens) [compound 326]” the “in vitro immunogenicity, wells” value (CD8+ T cells) was “++++ (≥70% = ++++)”.
With “74 (SLDLRPLEV; listed as Homo sapiens) [compound 74]” the “Peptide exchange” value (HLA-A*02:01) was ““++++” (≥75% = ++++)” and the “Wells positive [%]” value (CD8+ T cells) was ““++” (20% - 49% = ++)”.
“324 (LLYDAVHIV; listed as Homo sapiens) [compound 324]” was tested, and the “in vitro immunogenicity, wells” value (CD8+ T cells) was “++ (20% - 49% = ++)”.
For “25 (FLDTSNQHLL; listed as Homo sapiens) [compound 25]”, the “Peptide exchange” value (HLA-A*02:01) was ““+++” (≥50 = +++)” and the “Wells positive [%]” value (CD8+ T cells) was ““+” (<20% = +)”.
With “53 (FLREYFERL; listed as Homo sapiens) [compound 53]” the “Peptide exchange” value (HLA-A*02:01) was ““++++” (≥75% = ++++)” and the “Wells positive [%]” value (CD8+ T cells) was ““+++” (50% - 69% = +++)”.
“323 (ILVDWLVQV; listed as Homo sapiens) [compound 323]” was tested, and the “in vitro immunogenicity, wells” value (CD8+ T cells) was “++ (20% - 49% = ++)”.
For “321 (KLLAVIHEL; listed as Homo sapiens) [compound 321]”, the “in vitro immunogenicity, wells” value (CD8+ T cells) was “++ (20% - 49% = ++)”.
In the case of “36 (VILDIPLLFET; listed as Homo sapiens) [compound 36]”, the “Peptide exchange” value (HLA-A*02:01) is reported as ““+++” (≥50 = +++)” and the “Wells positive [%]” value (CD8+ T cells) is reported as ““++” (20% - 49% = ++)”.
“28 (FLSNANPSL; listed as Homo sapiens) [compound 28]” was tested, and the “Peptide exchange” value (HLA-A*02:01) was ““+++” (≥50 = +++)” and the “Wells positive [%]” value (CD8+ T cells) was ““++++” (≥70% = ++++)”.
In the case of “322 (TLTNIIHNL; listed as Homo sapiens) [compound 322]”, the “in vitro immunogenicity, wells” value (CD8+ T cells) is reported as “++ (20% - 49% = ++)”.
In the case of “320 (LLWGNLPEI; listed as Homo sapiens) [compound 320]”, the “in vitro immunogenicity, wells” value (CD8+ T cells) is reported as “++ (20% - 49% = ++)”.
In the case of “327 (MLFGHPLLVSV; listed as Homo sapiens) [compound 327]”, the “in vitro immunogenicity, wells” value (CD8+ T cells) is reported as “++ (20% - 49% = ++)”.
In the case of “306 (AQVALVNEV; listed as Homo sapiens) [compound 306]”, the “Peptide exchange” value (HLA-A*02:01) is reported as ““+++” (≥50 = +++)”.
“54 (DIFDAMFSV; listed as Homo sapiens) [compound 54]” was tested, and the “Peptide exchange” value (HLA-A*02:01) was ““+” (≥10% = +)”.
With “325 (FLFVDPELV; listed as Homo sapiens) [compound 325]” the “in vitro immunogenicity, wells” value (CD8+ T cells) was “+++ (50% - 69% = +++)”.
“269 (VLQNVAFSV; listed as Homo sapiens) [compound 269]” was tested, and the “Peptide exchange” value (HLA-A*02:01) was ““++++” (≥75% = ++++)”.
“100 (RLIRTIAAI; listed as Homo sapiens) [compound 100]” was tested, and the “Peptide exchange” value (HLA-A*02:01) was ““+++” (≥50 = +++)”.
In the case of “139 (FLASPLVAI; listed as Homo sapiens) [compound 139]”, the “Peptide exchange” value (HLA-A*02:01) is reported as ““++++” (≥75% = ++++)”.
“48 (KILDEDLYI; listed as Homo sapiens) [compound 48]” was tested, and the “Peptide exchange” value (HLA-A*02:01) was ““+++” (≥50 = +++)”.
In the case of “142 (FLYEDSKSVRL; listed as Homo sapiens) [compound 142]”, the “Peptide exchange” value (HLA-A*02:01) is reported as ““+++” (≥50 = +++)”.
With “222 (FLIETGTLL; listed as Homo sapiens) [compound 222]” the “Peptide exchange” value (HLA-A*02:01) was ““+++” (≥50 = +++)”.
With “184 (AVLGTSWQL; listed as Homo sapiens) [compound 184]” the “Peptide exchange” value (HLA-A*02:01) was ““+++” (≥50 = +++)”.
With “72 (TLQEETAVYL; listed as Homo sapiens) [compound 72]” the “Peptide exchange” value (HLA-A*02:01) was ““++” (≥20% = ++)”.
With “255 (GMWNPNAPVFL; listed as Homo sapiens) [compound 255]” the “Peptide exchange” value (HLA-A*02:01) was ““++++” (≥75% = ++++)”.
For “308 (SLLDQIPEM; listed as Homo sapiens) [compound 308]”, the “Peptide exchange” value (HLA-A*02:01) was ““+++” (≥50 = +++)”.
“250 (VLTNVGAAL; listed as Homo sapiens) [compound 250]” was tested, and the “Peptide exchange” value (HLA-A*02:01) was ““+++” (≥50 = +++)”.
In the case of “233 (MLEVHIPSV; listed as Homo sapiens) [compound 233]”, the “Peptide exchange” value (HLA-A*02:01) is reported as ““+++” (≥50 = +++)”.
For “266 (QLTEMLPSI; listed as Homo sapiens) [compound 266]”, the “Peptide exchange” value (HLA-A*02:01) was ““++++” (≥75% = ++++)”.
In the case of “108 (YLAPENGYLM; listed as Homo sapiens) [compound 108]”, the “Peptide exchange” value (HLA-A*02:01) is reported as ““+++” (≥50 = +++)”.
In the case of “106 (VLYELLQYI; listed as Homo sapiens) [compound 106]”, the “Peptide exchange” value (HLA-A*02:01) is reported as ““++++” (≥75% = ++++)”.
For “118 (VLDGMIYAI; listed as Homo sapiens) [compound 118]”, the “Peptide exchange” value (HLA-A*02:01) was ““+++” (≥50 = +++)”.
For “58 (QLAPFLPQL; listed as Homo sapiens) [compound 58]”, the “Peptide exchange” value (HLA-A*02:01) was ““+++” (≥50 = +++)”.
With “282 (YLLEQGAQV; listed as Homo sapiens) [compound 282]” the “Peptide exchange” value (HLA-A*02:01) was ““++++” (≥75% = ++++)”.
“319 (SLYKGLLSV; listed as Homo sapiens) [compound 319]” was tested, and the “in vitro immunogenicity, wells” value (CD8+ T cells) was “++ (20% - 49% = ++)”.
For “210 (FLAEQFEFL; listed as Homo sapiens) [compound 210]”, the “Peptide exchange” value (HLA-A*02:01) was ““+++” (≥50 = +++)”.
With “111 (YLLDTLLSL; listed as Homo sapiens) [compound 111]” the “Peptide exchange” value (HLA-A*02:01) was ““+++” (≥50 = +++)”.
With “301 (LQFDGIHVV; listed as Homo sapiens) [compound 301]” the “Peptide exchange” value (HLA-A*02:01) was ““+++” (≥50 = +++)”.
For “299 (RLLEEEGVSL; listed as Homo sapiens) [compound 299]”, the “Peptide exchange” value (HLA-A*02:01) was ““+++” (≥50 = +++)”.
For “122 (AISEAQESV; listed as Homo sapiens) [compound 122]”, the “Peptide exchange” value (HLA-A*02:01) was ““++” (≥20% = ++)”.
“16 (TLIAAILYL; listed as Homo sapiens) [compound 16]” was tested, and the “Peptide exchange” value (HLA-A*02:01) was ““++” (≥20% = ++)”.
